Assay [1] deals with copper-oxidized low density lipoprotein (human (endogenous in human plasma)). Description: ELISA; native LDL or oxLDL (1 μg/ml) captured on anti-apoB monoclonal antibody HUC20 on a 384-well plate; recombinant adiponectin added for 1 h at 25°C, washed with PBS, detected with anti-adiponectin polyclonal antibody; apparent Kd, 1:1 reversible binding assumed.
In assay [2] the target is copper-oxidized low density lipoprotein (human (endogenous in human plasma), oxidized with 7.5 μM CuSO4 for 16 h (residues not stated)). The assay is described as above. The conditions noted are these: both partners purified.

As to “globular form of adiponectin protein with an N-terminal His-tag sequence (domain or fragment; other documents disagree on this pair)”, in assay [1], the Kd amounted to 45.3 nM.

B1: Human recombinant full-length adiponectin protein (composed of the LMW, MMW, and HMW isoforms) with a C-terminal FLAG sequence (natural protein, UniProt Q15848 19-244, looked up)
chain: ETTTQGPGVLLPLPKGACTGWMAGIPGHPGHNGAPGRDGRDGTPGEKGEKGDPGLIGPKGDIGETGVPGAEGPRGFPGIQGRKGEPGEGAYVYRSAFSVGLETYVTIPNMPIRFTKIFYNQQNHYDGSTGKFHCNIPGLYYFAYHITVYMKDVKVSLFKKDKAMLFTYDQYQENNVDQASGSVLLHLEVGDQVWLQVYGEGERNGLYADNDNDSTFTGFLLYHDTN
notes: adiponectin, human, full-length recombinant protein; A mixture of trimers (LMW), hexamers (MMW) and HMW multimers; Secreted from HEK293 cells, so the signal peptide is probably absent (surmised); also called AdN; human recombinant full-length AdN; source: bought: BioVendor cat. no; RD172023100, produced in HEK293 cells
With B1, in assay [2], the Kd came to 15.7 nM.

(Values after paper PMC7890179, “Adiponectin forms a complex with atherogenic LDL and inhibits its downstream effects” (Journal of Lipid Research, 2020).)
